Reference: publication PMC9352680, “A comprehensive thermodynamic model for RNA binding by the Saccharomyces cerevisiae Pumilio protein PUF4”
Numbering of substitutions follows the chain as printed. Names and notes keep the numbering of the source.

Biological target: T1, PUF4 RNA-binding domain (Saccharomyces cerevisiae, UniProt P25339 537-888)
T1 sequence: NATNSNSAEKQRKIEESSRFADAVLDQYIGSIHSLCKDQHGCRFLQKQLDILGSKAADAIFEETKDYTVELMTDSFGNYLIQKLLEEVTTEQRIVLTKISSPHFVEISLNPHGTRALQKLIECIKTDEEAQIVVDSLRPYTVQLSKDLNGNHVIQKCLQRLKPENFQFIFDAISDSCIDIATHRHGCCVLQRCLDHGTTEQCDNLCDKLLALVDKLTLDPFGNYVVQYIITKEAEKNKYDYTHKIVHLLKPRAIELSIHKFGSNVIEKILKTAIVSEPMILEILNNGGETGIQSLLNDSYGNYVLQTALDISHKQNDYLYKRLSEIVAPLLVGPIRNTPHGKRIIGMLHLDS
Experiment: Mg; RNA-MaP; 20 mM Na-HEPES pH 7.4, 30 mM KOAc, 0.75 mM MgCl2, 0.1% Tween-20, 5% glycerol, 0.1 mg/mL BSA, 2 mM DTT; 25 C; 0.0125-409.6 nM protein
Settings: tags: N-His6-TEV cleaved; C-SNAP kept, Cy3B-labelled; label: tethered on chip by stalled RNA polymerase

B1: Ic_S2_P5E.1_K5.1_C5.1_H5.1_A5.1_[T6C]_[A7T]_F5.1_[T8A]_[T9C]_[A10G]_T5.1 (ssRNA)
RNA: UUUGAUUAAUAUGAUAUCGUUCUUUCUUGUAUCUACGUUCUUUCUCGAUAUCAUAUUAAUCUUU
B1 gave a Kd of 0.0261 µM.

B2: Ic_S2_P5E.1_K5.1_C5.1_H5.1_A5.1_[T5C]_[T6A]_[A7T]_F5.1_[T8C]_[T9G]_[A10G]_T5.1 (ssRNA)
RNA: B1 RNA with U32C, C33A, A35C, C36G
With B2 the Kd was 0.315 µM.

B3: Ic_S2_P5E.1_K5.1_C5.1_H5.1_A5.1_[T6A]_[A7C]_F5.1_[T8C]_[T9G]_[A10G]_T5.1 (ssRNA)
RNA: B1 RNA with C33A, U34C, A35C, C36G
Binder B3 has a Kd of 0.082 µM.

B4: Ic_S2_P5E.1_K5.1_C5.1_H5.1_A5.1_[T6C]_[A7G]_F5.1_[T8C]_[T9C]_[A10T]_T5.1 (ssRNA)
RNA: B1 RNA with U34G, A35C, G37U
B4 gave a Kd of 0.463 µM.

B5: Ic_S2_P5E.1_K5.1_C5.1_H5.1_A5.1_[T6C]_[A7T]_F5.1_[T9A]_[A10T]_T5.1 (ssRNA)
RNA: B1 RNA with A35U, C36A, G37U
Binder B5 has a Kd of 0.00153 µM.

B6: Ic_S2_P5E.1_K5.1_C5.1_H5.1_A5.1_[T5G]_[T6C]_F5.1_[T8C]_[A10T]_T5.1 (ssRNA)
RNA: B1 RNA with U32G, U34A, A35C, C36U, G37U
With B6 the Kd was 0.0997 µM.

B7: Ic_S2_P5E.1_K5.1_C5.1_H5.1_A5.1_[T6G]_[A7T]_F5.1_[T8C]_[T9A]_[A10T]_T5.1 (ssRNA)
RNA: B1 RNA with C33G, A35C, C36A, G37U
Work on B7 yielded a Kd of 0.064 µM.

B8: Ic_S2_P5E.1_K5.1_C5.1_H5.1_A5.1_[T5C]_[T6A]_[A7G]_F5.1_[A10G]_T5.1 (ssRNA)
RNA: B1 RNA with U32C, C33A, U34G, A35U, C36U
Work on B8 yielded a Kd of 0.00939 µM.

B9: Ic_S2_P5E.1_K5.1_C5.1_H5.1_A5.1_[T5C]_[T6A]_[A7T]_F5.1_[T8A]_[T9G]_[A10T]_T5.1 (ssRNA)
RNA: B1 RNA with U32C, C33A, C36G, G37U
With B9 the Kd was 0.00517 µM.

B10: Ic_S2_P5E.1_K5.1_C5.1_H5.1_A5.1_[T6C]_[A7C]_F5.1_[T9A]_[A10T]_T5.1 (ssRNA)
RNA: B1 RNA with U34C, A35U, C36A, G37U
B10 gave a Kd of 0.00114 µM.

B11: Ic_S2_P5E.1_K5.1_C5.1_H5.1_A5.1_[T5A]_[A7C]_F5.1_[T8C]_[T9G]_[A10C]_T5.1 (ssRNA)
RNA: B1 RNA with U32A, C33U, U34C, A35C, C36G, G37C
Work on B11 yielded a Kd of 1.2 µM.

B12: Ic_S2_P5E.1_K5.1_C5.1_H5.1_A5.1_[T5C]_[A7T]_F5.1_[T8C]_[T9C]_[A10C]_T5.1 (ssRNA)
RNA: B1 RNA with U32C, C33U, A35C, G37C
With B12 the Kd was 0.149 µM.

B13: Ic_S2_P5E.1_K5.1_C5.1_H5.1_A5.1_[T5A]_[A7T]_F5.1_[T8C]_[T9A]_[A10C]_T5.1 (ssRNA)
RNA: B1 RNA with U32A, C33U, A35C, C36A, G37C
With B13 the Kd was 0.599 µM.

B14: Ic_S2_P5E.1_K5.1_C5.1_H5.1_A5.1_[T5A]_[T6C]_F5.1_[T8C]_[T9C]_T5.1 (ssRNA)
RNA: B1 RNA with U32A, U34A, A35C, G37A
B14 showed a Kd of 0.278 µM.

B15: Ic_S2_P5E.1_K5.1_C5.1_H5.1_A5.1_[T5A]_[T6A]_F5.1_[T9C]_[A10T]_T5.1 (ssRNA)
RNA: B1 RNA with U32A, C33A, U34A, A35U, G37U
B15 was tested, and the Kd was 0.0815 µM.

B16: Ic_S2_P5E.1_K5.1_C5.1_H5.1_A5.1_[T5C]_[A7C]_F5.1_[T8C]_[T9C]_[A10T]_T5.1 (ssRNA)
RNA: B1 RNA with U32C, C33U, U34C, A35C, G37U
B16 showed a Kd of 0.104 µM.

B17: Ic_S2_P5E.1_K5.1_C5.1_H5.1_A5.1_[T6G]_[A7G]_F5.1_[T8C]_[A10C]_T5.1 (ssRNA)
RNA: B1 RNA with C33G, U34G, A35C, C36U, G37C
Work on B17 yielded a Kd of 0.543 µM.

B18: Ic_S2_P5E.1_K5.1_C5.1_H5.1_A5.1_[T6A]_[A7T]_F5.1_[T8C]_[T9C]_[A10T]_T5.1 (ssRNA)
RNA: B1 RNA with C33A, A35C, G37U
B18 showed a Kd of 0.0103 µM.

B19: Ic_S2_P5E.1_K5.1_C5.1_H5.1_A5.1_[T5G]_[A7T]_F5.1_[T8C]_[A10T]_T5.1 (ssRNA)
RNA: B1 RNA with U32G, C33U, A35C, C36U, G37U
In the case of B19, the Kd is reported as 0.126 µM.

B20: Ic_S2_P5E.1_K5.1_C5.1_H5.1_A5.1_[T5C]_[A7T]_F5.1_[T8G]_[A10T]_T5.1 (ssRNA)
RNA: B1 RNA with U32C, C33U, A35G, C36U, G37U
In the case of B20, the Kd is reported as 0.0283 µM.

B21: Ic_S2_P5E.1_K5.1_C5.1_H5.1_A5.1_[T5G]_[T6C]_[A7C]_F5.1_[T9C]_T5.1 (ssRNA)
RNA: B1 RNA with U32G, U34C, A35U, G37A
For B21, the Kd was 0.0748 µM.

B22: Ic_S2_P5E.1_K5.1_C5.1_H5.1_A5.1_[T6C]_F5.1_[T8G]_[A10C]_T5.1 (ssRNA)
RNA: B1 RNA with U34A, A35G, C36U, G37C
For B22, the Kd was 0.218 µM.

B23: Ic_S2_P5E.1_K5.1_C5.1_H5.1_A5.1_[T6C]_[A7T]_F5.1_[T9C]_[A10C]_T5.1 (ssRNA)
RNA: B1 RNA with A35U, G37C
With B23 the Kd was 0.014 µM.

B24: Ic_S2_P5E.1_K5.1_C5.1_H5.1_A5.1_[T5G]_[A7G]_F5.1_[T8C]_[T9C]_T5.1 (ssRNA)
RNA: B1 RNA with U32G, C33U, U34G, A35C, G37A
B24 gave a Kd of 0.983 µM.

In the case of UCUCUUUUUAUAUUGUCUCUU (ssRNA) [Ib_S1_P4E.1_K4.1_C4.1_H4.1_[G2T]_A4.1_F4.1_[A9G]_T4.1], the Kd is reported as > 2.3 µM.

UCUCUUCGUAUAUUCUCUCUU (ssRNA) [Ib_S1_P4E.1_K4.1_C4.1_H4.1_[T1C]_A4.1_F4.1_[A9C]_T4.1] showed a Kd of 1.14 µM.

UCUCUUUAUAUAUUCUCUCUU (ssRNA) [Ib_S1_P4E.1_K4.1_C4.1_H4.1_[G2A]_A4.1_F4.1_[A9C]_T4.1] showed a Kd of 0.857 µM.

UCUCUUGGUAUAUUUUCUCUU (ssRNA) [Ib_S1_P4E.1_K4.1_C4.1_H4.1_[T1G]_A4.1_F4.1_[A9T]_T4.1] was tested, and the Kd was 1.21 µM.

UCUCUUCGUAUAUUUUCUCUU (ssRNA) [Ib_S1_P4E.1_K4.1_C4.1_H4.1_[T1C]_A4.1_F4.1_[A9T]_T4.1] showed a Kd of 1.42 µM.
